Assay: protein stability index of a GFP-peptide fusion (GPS, HEK-293T) (PSI 1-6); higher = more stable
Conditions: c terminus: native
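Further: lentivirally expressed fusion library, cells FACS-sorted into six equal-sized GFP/DsRed ratio bins, PSI computed from sequencing read fractions per bin weighted by bin number.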

**Q.** With LPALFTDLYSQEITAEEAREALPE [SNF8 addE] as the protein, how does the protein stability index (parent: NP_009172.2) read?
**A.** Its protein stability index is 5.12.

**Q.** With HSLRAVSTDPPHHDHHDEFCLMPE [BEX2 addE] as the protein, how does the protein stability index (parent: NP_116010.1) read?
**A.** Its protein stability index is 4.74.

**Q.** For CQPISFSGFGAEDDDLGGLGLGPE [POLD2 addE], which protein stability index (parent: NP_006221.1) is on record?
**A.** The protein stability index was 2.57.

**Q.** With DGWIRVSSDNVADLHEKYSGSTPE [PSMB5 addE] as the protein, how does the protein stability index (parent: NP_002788.1) read?
**A.** The protein stability index was 4.

**Q.** Which protein stability index (parent: NP_015628.1) does the source give for EQRNSRWNTVLRAVKAKTHHLEPE [TRPA1 addE] here?
**A.** The protein stability index was 4.66.

From the supplement of paper PMC10567573
